Measured values from US20030091533A1, “Regulation of mononuclear phagocyte stimulation” (priority 2001, published 2003).

Test system: LPS-stimulated AM
Experiment: IL-10 release by ELISA, AM
Type: cell-based, human
Settings: preincubated 24 hour, LPS 20 h
Experimental: FIG. 6 depicts the effect of IL-9, IL-4 and IFN-γ on the release of IL-10 (A) and TGF-β1 (B) by LPS-stimulated PBM and AM cultured under the same conditions as described in FIG. 5 Example I. D. TGF-β1 was determined by ELISA in crude supernatants (untreated supernatants) and in ethanol-acid (acid-treated) supernatants, using a kit from Biosource for determining TGF-β1 release from its latent complexes. An ELISA kit from CLB (Amsterdam, The Netherlands) was used to determine IL-10 following the manufacturer's protocol. […] Data are means±SEM (n=3). *P<0.05 compared with unstimulated cells; **P<0.05 compared with cells preincubated with medium.
Cells (1×10^6 PBM or 0.5×10^6 AM/well) were distributed in 24-well plates (Falcon), preincubated in cRPMI for 24 hours at 37° C., 5% CO2 with cytokines (IL-9, IL-4 (20 ng/ml) and IFN-γ (200 U/ml)) and stimulated for 20 hours with 1 μg/ml LPS without removing cytokines. […] Release of TNF-α was quantified by a cytotoxicity bioassay using WEHI 164 cells clone 13, as previously described (Espevik and Nissen-Meyer, J. Immunol. Methods, 95:99-105 (1986) incorporated herein by reference), using rhTNF-α from Boehringer as a standard. IL-8, IL-10 and TGF-β1 concentrations were determined by ELISA. A kit from CLB (Amsterdam, The Netherlands) was used for IL-10 quantitation, following the manufacturer's protocol. […]

B1: IFN-γ: Interferon gamma, primes mononuclear phagocytes, 200 U/ml (protein, UniProt P01579 24-161, looked up)
Interferon gamma: QDPYVKEAENLKKYFNAGHSDVADNGTLFLGILKNWKEESDRKIMQSQIVSFYFKLFKNFKDDQSIQKSVETIKEDMNVKFFNSNKKKRDDFEKLTNYSVTDLNVQRKAIHELIQVMAELSPAAKTGKRKRSQMLFRG
  IL-10 release by LPS-stimulated AM: decreased
